According to article PMC10870365, “Dissection of protein and RNA regions required for SPEN binding to XIST A-repeat RNA”:

Target: T1, SPEN RRM 2-3 (Homo sapiens) (UniProt Q96T58)
T1 sequence: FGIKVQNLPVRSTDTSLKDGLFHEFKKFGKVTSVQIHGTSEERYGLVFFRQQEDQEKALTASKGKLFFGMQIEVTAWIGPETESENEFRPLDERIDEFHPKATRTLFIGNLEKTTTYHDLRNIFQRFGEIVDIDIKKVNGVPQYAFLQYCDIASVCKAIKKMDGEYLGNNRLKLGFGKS
Experiment: EMSA
Conditions: EMSA: 20 mM Tris-HCl pH 7.5, 150 mM KCl, 5 mM MgCl2, 10% glycerol, room temperature 30 min, 2 nM each labeled RNA (multiplexed), 4.5% TBE native gel

| Sequence | Kd [µM] |
| --- | --- |
| GGGCUGCGGAUACCUGGUUUUAUUAUUUUUUCUUUGCCCAACGGGGCCGUGGAUACCUGCCUUUUAAUUCUUUUUUAUUCGCCCAUCGGGGCCGCGGAUACCUGCUUUUUAUUUUUUUUUCCUUAGCCCAUCGGGGUAUCGGAUACCUGCUGAUUCCCUUCCCCUCUGAACCCCCAACACUCUGGCCCAUCGGGGUGACGGAUAUCUGCUUUUUAAAAAUUUUCUUUUUUUGGCCCAUCGGGGCUUCGGAUACCUGCUUUUUUUUUUUUUAUUUUUCCUUGCCCAUCGGGGCCUCGGAUACCUGCUUUAAUUUUUGUUUUUCUGGCCCAUCGGGGCCGCGGAUACCUGCUUUGAUUUUUUUUUUUCAUCGCCCAUCGGUGCU [XIST A-full] | 1.05 |
| GUACCAGGUAUGUGAUGACAUCAGCCGACGCCUGGCACUGCUGCAGGAACAGUGGGCUGGAGGAAAGUUGUCAAUACCUGUAAAGAAGAGAAUGGCUCUACUGGUGCAAGAGCUUUCAAGCCACCGGUGGGACGCAGCAGAUGACAUCCACCGCUCCCUCAUGGUUGACCAUGUGACUGAGGUCAGUCAGUGGAUGGUAGGAGUUAAAAGAUUAAUUGCAGAAAAGAGGAGUCUGUUUUCAGAGGAGGCAGCCAAUGAAGAGAAAUCUGCAGCCACAGCUGAGAAGAACCAUACCAUACCAGGCUUCCAGCAGGCUUCAUAAUCCUCGGUUCCCCAGACUCACCGGACACCAUCUCCU [SRA] | 5.57 |
